Measurements taken from US8563503B2, “Antibiotic, its nucleotide sequence, methods of construction and uses thereof” (Protein Design Lab. Ltd., priority 2011, dated 2013).

Key:
[1] = tested on: Pseudomonas aeruginosa Standard Strain (ATCC 27853); experiment: Bacteria growth curve (A595 nm cloudiness), Pseudomonas aeruginosa; assay type: cell-based; conditions: drug 5 μg/ml, 37° C., A595 nm per hour
Method: The experimental bacterium was Pseudomonas aeruginosa Standard Strain (ATCC 27853) purchased from the Center for General Microorganism of the Administration (CGMCC). 5 microliter bacteria solution (10^6 CFU/ml level bacterium amount) was added into 10 ml MH culture solution. Seven groups are prepared. 0.3 M NaCl+50 mM boric acid buffer fluid which amount was identical to amount of antibiosis polypeptide liquid in the experimental group was added as control in the first group, 5 μg/ml wild-type colicin Ia was added in the second group, 5 μg/ml PMC-SA1 was added in the third group, and 5 μg/ml PMC-PA was added in the fourth group.
Liquid in the above groups was put into 100 ml conical flask, 200 rpm, grew at 37° C. 100 μl was sampled per hour, and added onto 96-hole Elisa Plate to measure bacteria grown cloudiness by spectrophotometer (A595 nm) color comparison. The bacteria growth curve was drawn up to compare the bacteriostasis efficacy of antibiosis polypeptide.

[2] = tested on: Staphylococcus aureus (MSSA); experiment: MIC by Agar Doubling Dilution Method, clinical isolates; assay type: cell-based; conditions: MSSA clinical strains
How it was run: (§1)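 For Enterococcus, medium was MH supplemented with 5-10% defibrinated rabbit blood and incubation used 5% CO2 at 37° C. All strains are spotted at 10^5 CFU/ml onto agar carrying twofold drug dilutions and read after 18-24 h for absence of growth.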

[3] = tested on: Staphylococcus aureus (MRSA); experiment: as above; assay type: cell-based
How it was run: as §1

[4] = tested on: E. coli; experiment: as above; assay type: cell-based; conditions: E. coli clinical strains
How it was run: as §1

[5] = tested on: Baumanii; experiment: as above; assay type: cell-based; conditions: Baumanii clinical strains
How it was run: as §1

[6] = tested on: Staphylococcus epidermidis (MRSE); experiment: as above; assay type: cell-based; conditions: MRSE clinical strains
How it was run: as §1

[7] = tested on: Staphylococcus epidermidis (MSSE strain); experiment: as above; assay type: cell-based; conditions: MSSE clinical strains
How it was run: as §1

[8] = tested on: Enterococcus; experiment: as above; assay type: cell-based, Enterococcus faecalis; conditions: Enterococcus clinical strains
How it was run: as §1

[9] = tested on: Staphylococcus aureus ATCC 29213; experiment: Protection test in vivo (intravenous injection) of infected mice; design: species or system Kungming mice; conditions: mice, infected with 4.6 × 10^5 cfu/ml i.p., drug once intravenous
How it was run: (§2)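 Mice got a lethal intraperitoneal bacterial challenge, then one intravenous dose of drug in sterile water at 10, 5 or 2.5 mg/kg. Survival was checked every 24 h for 7–14 days, with death counted as the positive result.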

[10] = tested on: E. coli 02-1-65; experiment: as above; design: species or system Kungming mice; conditions: mice, infected with 3.8 × 10^5 cfu/ml i.p., drug once intravenous
How it was run: as §2

[11] = tested on: Enterococcus ATCC 700802; experiment: as above; design: species or system Kungming mice; conditions: mice, infected with 7.0 × 10^6 cfu/ml i.p., drug once intravenous
How it was run: as §2

[12] = tested on: Staphylococcus aureus MRSA BAA-42; experiment: as above; design: species or system Kungming mice
How it was run: as §2

[13] = tested on: ATCC 25923 penicillin-sensitive Staphylococcus aureus; experiment: Bacteria growth curve (A595 nm cloudiness), penicillin-sensitive Staphylococcus aureus; assay type: cell-based; conditions: drug 100 ng/ml, 37° C., A595 nm per hour
Method: The bacterium was United States Reference Culture ATCC 25923 penicillin-sensitive Staphylococcus aureus. 2 microliter of bacteria solution (10^5 CFU/ml) was added into 10 ml culture solution containing 1% tryptone, 1% NaCl, 0.5% yeast extract, 0.5% glucose and 0.1% K2HPO4, totally prepared six groups. The first group as control was added 0.3 M NaCl+50 mM boric acid buffer fluid (i.e. blank preservative fluid for novel antibiotic, wild-type colicin Ia and protein produced by BL-21 engineering bacteria without plasmid, by the same volumes of antibiosis polypeptide liquid in the experimental group, the second group was added penicillin G sodium by 100 ng/ml, the third group was added wild-type colicin Ia by 100 ng/ml, the fourth group was added protein produced by BL-21 engineering bacteria without plasmid by 100 ng/ml, the fifth group was added recombinant protein that C-terminus of colicin Ia is fused other eight peptides by 100 ng/ml, and the sixth group was added the novel antibiotic PMC-SA1 by 100 ng/ml.
The solutions of the six groups were respectively put into 100 ml conical flask, 200 rpm, grew at 37° C. 100 μl was sampled per hour, and added onto 96 hole ELISA Plate and measured bacterium growth cloudiness by spectrophotometer (A595 nm) color comparison. The bacteria-growth curve was drawn up to compare the bacteriostasis efficacy of novel antibiosis.

B1: PMC-SA1: Staphylococcus aureus pheromone AgrD I linked to C-terminus of allosteric colicin Ia′; SEQ ID NO. 13; plasmid pBHC-SA1 (protein)
chain: SDPVRITNPAAESLGYDSDGREIMGVDIYLNPPRVDVFKGTPPAWSSFGNKTIWGGNEWVDDSPTRSDIEKRDKEITAYKNTLSAQQKENENKRTEAGKRLSAAIAAREKDENTLKTLRAGNADAADITRQEFRLLQAELREYGFRTEIAGYDALRLHTESRMLFADADSLRISPREARSLIEQAEKRQKDAQNADKKAADMLAEYERRKGILDTRLSELEKNGGAALAVLDAQQARLLGQQTRNDRAISEARNKLSSVTESLNTARNALTRAEQQLTQQKNTPDGKTIVSPEKFPGRSSTNHSIVVSGDPRFAGTIKITTSAVIDNRANLNYLLSHSGLDYKRNILNDRNPVVTEDVEGDKKIYNAEVAEWDKLRQRLLDARNKITSAESAVNSARNNLSARTNEQKHANDALNALLKEKENIRNQLSGINQKIAEEKRKQDELKATKDAINFTTEFLKSVSEKYGAKAEQLAREMAGQAKGKKIRNVEEALKTYEKYRADINKKINAKDRAAIAAALESVKLSDISSNLNRFSRGLGYAGKFTSLADWITEFGKAVRTENWRPLFVKTETIIAGNAATALVALVFSILTGSALGIIGYGLLMAVTGALIDESLVEKANKFWGIYSTCDFIM
modifications: The peptide of PMC-SA1
notes: Staphylococcus aureus pheromone AgrD I linked to C-terminus of allosteric colicin Ia′; 13; plasmid pBHC-SA1
In the case of B1, the “growth of Pseudomonas aeruginosa (bacteria growth curve)” value [1] is reported as “can not be effectively restrained”, the MIC50 [2] is reported as 0.5 mg/L and the MIC90 [2] is reported as 16 mg/L. The MIC50 ([3]; MRSA clinical strains) was 8 to 16 mg/L, the MIC90 ([3]; MRSA clinical strains) was greater than 16 mg/L and the “Scope of MIC” value ([3]; MRSA clinical strains) was less than 0.25 to 64 mg/L. The “in vitro antibacterial activity relative to oxacillin, standardized by same drug molecular number in unit volume” value ([3]; Staphylococcus aureus, MRSA) was 1,240 times, the “in vitro antibacterial activity relative to vancomycin, standardized by same drug molecular number in unit volume” value ([3]; Staphylococcus aureus, MRSA) was “three” and the MIC50 [4] was 16 mg/L. It also gave an MIC90 [4] greater than 32 mg/L, an MIC50 [5] of 32 mg/L and an MIC90 [5] greater than 64 mg/L. For the same molecule, the MIC50 [6] was greater than 64 mg/L, the MIC90 [6] was greater than 64 mg/L and the MIC50 [7] was 1 mg/L. The MIC90 [7] was 32 mg/L, the “Scope of MIC” value [7] was 0.25 to 64 mg/L and the MIC50 [8] was greater than 64 mg/L. The MIC90 [8] was greater than 64 mg/L, the ED50 [9] was 10.35 mg/kg and the ED50 [10] was 3.78 mg/kg. For the same molecule, the ED50 [11] was 18.2 mg/kg, the ED50 ([12]; mice, infected with 6.5 × 10^5 cfu/ml i.p., drug once intravenous) was 4.12 mg/kg and the “treatment effects on methicillin-resistant Staphylococcus aureus infection in vivo compared with vancomycin” value ([12]; survival rate of mice, three dosage groups) was “far better treatment effects”. The “growth of penicillin-sensitive Staphylococcus aureus (bacteria-growth curve)” value [13] was “restrained”.
